Test results taken from the DeepSol protein solubility set.

assay: soluble on expression in E. coli; label from the status in PepcDB or PDB records

Sequence	soluble on expression in E. coli
MVKLDDKNKKFKGKKKVKNVLEKKAKGLKLNKVDRKRIVKIEEKAALKSKVDKAVKDELERLKKSSSTSVFDNDGTRDSLCSESSFGSQPAPKKKSKKVLFSGELEHVKVFDKRVQDLQIKPSEASPGRGILRSPLDKKVKKLAKVKTVKVAQEEEEEHSAPPKKKVKVNAEKAVASEPADDENLESVDEQAGGDESHIDIPTLKRKRVAIQVTKSVKEQLLNMPRKERKAFLKELKLKRKPEGARAQKCKELWEKIRMGKTPKAEKDTAVHELYGLVKGHAAKLIYAHDTSRVIECLVATEREGIINNLFNELTPEIVRMSKNVYSKFFVKKMLKNGTKEQRDIIINAFRGHAPTLLRIKHAAEVLEYAYNDFANAHQRYNIITEFYGKEFILFREDNIRSLTEILAEKPEKKVVILKHLDEVIGAVNEKETLRLSILHKLMLDFFDNCDEEKKINLLDSLKDKIPEFIHTPDGAKLAIKLIWFAPVKERKLIVKNFKDLSVKAAMEHYGHRVLLALFDTVDDTVLLNKVIVSELANEMKKLIEDDWGEKVIHYLVHPRDGRGIDKREITFLAEGDSNPHSKKTQKDRYGQLYAGITENLYPYLAANFEELVFEANKSKFVAACLETTSSFDLFDRQVPAEARKSCNQAIVELAKKDFVPMDQEGFHIIEHQSGNFILMAVMRCDAALQEDERLSVALAEGLTSKQLGSWVTCNRGCHVLLKMLQVGGPKVIEKLKASISRKHLDGYNSKGANLLKAQLDGNVKK	soluble
MVKLMEVYEGKAKKMIPIDDDKLIMEFKDDATAFDGTKKARFKGKGWLNAQLSVIFFKLLEEHGIKTHFIGVAGGNRLIVEKLDMYPLEVVVRNVVAGSLKKRLPLPEGYELPEPIVELYYKNDELHDPMINYYHAKVLGISLDEIKKIEEIALKVNEILKDYLAKKGIILVDFKLEFGKDKNGDIVLADEISPDTCRFWDAKTKRSLDKDVFRFDKGDLIEAYKEIYERITGEKPEF	soluble
MVKSFLMLGQSNMAGRGFINEVPMIYNERIQMLRNGRWQMMTEPINYDRPVSGISLAGSFADAWSQKNQEDIIGLIPCAEGGSSIDEWALDGVLFRHALTEAKFAMESSELTGILWHQGESDSLNGNYKVYYKKLLLIIEALRKELNVPDIPIIIGGLGDFLGKERFGKGCTEYNFINKELQKFAFEQDNCYFVTASGLTCNPDGIHIDAISQRKFGLRYFEAFFNRKHVLEPLINENELLNLNYARTHTKAEKIYIKSMDFALGKISYDEFTSELMKINNDLEHHHHHH	soluble
MVKVYIHDNKVDSDYRAPHNSGTELSLDELAKLGVIYKYCANEEEVNEIARQREYKNRDVVNICEGSFKSEAEFNEKLATFYQEHLHEDEEIRYCLEGAGYFDVRDASTPENWIRCLVESGDLLILPPGIYHRFTLTTSNHIKALRLFKDEPKWQAINRSNQADSLPVRKDYIALINQY	soluble
MVLDRQHLGVTKSRCIVWGVAFLSDGTVISVDSVGKVQLWDSATGTLVKSHLVANADVQSIAVADQEDSFVVGTAEGTVFHFQLVSMTSNSSEKQWVRTKPFQHHTHDVRAVAHSPTALISGGTDTHLVIRPLMERVEVKNYDAALRKITFPHRRLISCSKRRQLLLFQFAHHLELWRLGSTSATGKNGDTLPLSKNADHLLHLKTKGPENIICSCVSPCGSWIAYSTASRFFLYRLKYERDNISLQRVSKLPSFLRSALHILFSEDSTKLLVASNQGSLHIVHLSEGSFKHLHTFQPQSGTVEAMCLLAVSPDGNWLAASGTSAGVHVYDLHHLKLHCTVPAYNFPVTALAIAPNTNNLVIAHSDQQVFEFSIPEKQYTEWSRSLQKQGFHQLWLQRDTPITHISFHPKRPMHILLHDAYMFCIIDKSLPLPNEKTVLYNPLPPKNESDVFLRRTTHGFKMSKIYKPLLFMDLLDERTLVAVERPLDDIIAQLPPPIKKKKFGT	not soluble
MVLILNGPNLNLLGRREPEVYGRTTLEELEALCEAWGAELGLGVVFRQTNYEGQLIEWVQQAHQEGFLAIVLNPGALTHYSYALLDAIRAQPLPVVEVHLTNLHAREEFRRHSVTAPACRGIVSGFGPLSYKLALVYLAETLEVGGEGF	soluble
MVLKSKGSVLDLEHDNQTLKDYISVFERNKMRLTQSRLMLLQCLVQHRDWHTLAELKHHLEQNQQRTTLASIYNNLKIFAKLKLINIFVDTNRFETYYCLRHENHKHIYFFDENQRKFLTLPLQDKEALSLIGHKSKHGKIKLNDFYIVASGTLEDDQ	soluble
MVLSVADAKKLTVPRLKEELASRGLDNTGNKPELLARLTESIEQAADELLGDAGITSDTHLLSDDILNDDILDAPSVGDESEADKLLGSVDGAEEHKTDKSEGEEKHEVHLIDKKIDEVTAETDKRARAIRFGLPVTAEDLGSDGAKAARAKRFDLPEDSKRLTSNDAKASRAERFGITPKTPAADDKLAARAARFGIPVGGAASASASKNAPNSEGKAAKLAARAKRFGGEIDDEEMEAKKKARMERFGTSN	not soluble
MVMVNFVKAGCSRWRCMLAKDTCIFTTFQMVPVSLCCCSYDRCNVGGNPVYSDNPKQIQNGGGNSGNWNSGGNNNGASGGSWGNGNANNNNNNNNGGSNNNGWGNNNDWSSNYNYGGSNAANEPKMTKQTVAGDDSWNKNKWTNKQVEDMFKKSIDDRGDEIQLEDDFKKIDKNYKTQSVPQESLRTLSARKEVEKIPFVAGKSSGVGAKTTASPTTGKSKEIQL	not soluble
MVMWVFGYGSLVWNPGFHYDEKVLGFIKGYKRVFDLACIDHRGTPEHPARTCTLEKAEEAICWGTAFCVRGGPEKERLAMEEDDPLKPAVTGVIVFTSTPDKVSNKYYLGPAPLEDMARFLSSHLAVILYIQRQIATANGPCGNNRDYLFLLEKAMHDIGFVVKGSDLDGFKRDIVFDVLSHFLFHTGHEEDYVIELANEVRKVLAESSTKKVTPVKESRASRVANKSKNNVPTAHQILPHHPEAVATTI	soluble
MVNFFRLNLSSNQAAAVTVSETAELPEALEQLGLSNSRPVLVIVGGASQTSEADFLRIQSLFVEVLAPIAQSLGAYVVDGGTDAGVMRLMGDARSQINGQFPLIGVAPTAKVILPNQTTILADDATPLEPHHSHFVLIPGSKWGDESPWIVKVATLLANGLPSITVLINGGEISFIDALNSVIAGRLVIVIAGSGRTADKIASALRGYATDERATELAASDHIQTIDLEAAPEELIDTMTNLLLNLEHHHHHH	not soluble
MVNKEHFSKKFDADLEEIRTRVLQMGGLVEEQIKNAIEALTEGNEHMIEQVIDNDHRVNAMEVKIDELCSQIIVRRQPTAIDLRMIMTVINTITDLERIGDEAAKIARMAKLIYAADRMYTPRFVEIRHIAAIAMDMLRKALDAFARVDPNASAEIVRQDEQVDEEFRSIIRHLVTFMMEDPRKISTAIEILFAAKAVERIGDHAKNMSEYVVYMVKGKDVRHVSADEIEREVGK	not soluble
MVNSDIREQLRPFFEPKAVAIIGATNKKGKVGNVIFENFKKNKEKGIFKGNIYPVNPKLDEIEGYKVYHDVSELPDDTDLAVIAIPAPAVPETMRKIGEKGIKSVIIITGGFGELGEEGKRMEQEILEIARANGIRVIGPNCVGVYVPDTGVDTVFLPDEKMDRPPSGPIAFISQSGAFAAAMLDWAAMAGIGIGKMVSYGNKIDVDDADLMEYFAHDDEIKVMTFYIEGVKDGRKFMETAKRVTKIKPIIALKSGRTEYGAKAASSHTGSLAGQDVIYDAVFKQTGIIRAEDFEHMFDLAKAFAKCKLPKGDRIGIITDGGGAGVMASDAVAKFGLKLAELSEETIKFLRERFPPHAVVGNPTDVVGDTDAERYRLALEAFTKDPNVDAILLIVLFQVPLLDEEEVINIITDYAKKSDKPIVVVSMGGYKTDKYARMLEERGIPVYPTPERGVRALAGLVRYAKYIRGNGE	soluble
MVPPNDEIEDGFYLIDDSNHDEDLDFSDFPWLDPDHPLFFPATQANNSKGSTRWDAVNKFSVENWYPHLRKHTFKSHFITLNYNDIHYLMGNIPPDYDSSKLESIFNKILSEFNNKEVFMRLSTRSPKDSKFLFEEASTIMSKDFVYWNENDNKHQQLVSFVASMLKAMKIKSGRKIIETIAQSPRVYNDLLALVSSSNQSDCTTNVILREWHDIRPDHEFRVFVSRRHRKESIVTAISQYFHFLYFDKSPADCFNFLDEEDKKAVIKKFENYVLKSVDPDVAKFLNFSSEQDDDESSDCIREYIVDLALIPVSQYHGEITDENIIEIGANTYVMVVIELNPFAPAATGSGLFNWKNDLEHHHHHH	soluble
MVPSFPFQRLPNKPFQNVLKSMSVGNLLSYSMCSEASKSHVTNLKVKINSFEINVTENVHLFVKSEHGPTFNFRTVTSANGNISDDVTPANENEKHRWYKKGFELRNWIEHFLSVLNHSKIDKLNFISQQGERSKNDYLRDSLEGFKVDCFTVQQCSESYQRSIFRNFSPINTFIICATGAESTKAISSALPHNLKDFGYVSRGATWNFSLDNLLLSNSRNLVVIEARFSFPDINMFLKHWLNGSNRRLTNAYFIYTTPLVSEDISKGLPFSIPSEAEISKLPSDLMEHRETMFQLKRKFDSTATIVLKQNNGKHVFNMFVEHF	not soluble
MVPTTPFTIENTPVGRGNSGARSHKEPSAKRKKPTSTPTVRCGTVPQEPSTSAATVTQKPAGSTMATANITETRRIDISSCSDRPLIPCTASGVPLTTFSNKSLDSILNQDSEIVGGISQKDLNELRNRGPNMTVKQLLAKNFKNYKVRQSLTSELATEFVNRTLSENDVPMGALIMPPMEDVQESIVKESKTYNYAAASGGSLPFSNPHSEGILIRSPAIKGPHTLRDVLDSLGSVGTPAANQTLKDVLGSFNSQQPIDPTPSKTLKDVLGSLDLDNDYDLKLKMEGLDHDLKVESPTDAELGLDEFANQILSSKYKGTSLDTDHTAYPGNHLPWPVLWKNPVPKYIQGEIYCYVDGCTYSPMSEIIKSGKFMVPLDHPVEFIFKDRPILVTMEELLTANGINMSKAQHYRMLQGLLQKSGVHIRADYAERLHEFQALMDGLEIEDKPRPALKLSSDKLPLMCIYPDIYMNALGRRIHGAVIVDSSGVQETIGTRTLITRHQIAEFLLENPESPDSPDITTAPSKNSTIGDMMRPKSKIRRTHYVDLNKMVWRHFKDCQAAGIQINGKQLKDQAMRYAKDMGLESFRGSEGWLDAFKRRHRIDLKSMTGYPVCYENDMYEEVDKECRELDMESHMLHQQPPSFFPQSAPDEFAASFFSSLSGFPQQMVVQEPPTTSSSNHLQNMINSMMTPPVVDSRMMPSTSSAGASGASASSQEPDGGGDTIFNVMRSCQIKVADKEVSHALDTLRTYILEHDPAAMSLLVPLQERLATTSSGAIGRDMPSTSSSS	soluble
MVPVRLPLFGPSRAEGPMGPLPLRRKALGILYYLALEGPTRRERLADLLWGHRVALQNLRSELTHLRSFFGKEAFRGPVLTLPPGVELDRTPGSGEAMEGLEDLSPAFADWVYGWRTRLAPGEEGTPFPKRLEAVRPPALVILIGPPGSGQESLAQALAQKLGLPLRHGLGEGAGVFYLSEPFPPKEVGLALKPLPGRVLVVARSSFGEDPSFLLALRTRFPAEVTVVEQVPCLSWREAVGGPLRHLPFAEAARFYLRSGGRVEVLRELLAMGNPEALPQRVRAMVALEARHLPWEARKALEVLALHPGPFPEKLAWILGYGEALDELEHRGWLLYCEGRYRFSEPQFRPYLTAGFGEGERCRLHARLAEAWEALGDPVAAAYHRFYGEKGEALKAAQLGSWRQALAAHPGPNVPLPRSRVRKGKKRALETEEIHLVSFQGEVAEAVLELEEPLLLHLQGEVYQELPLGLGANLEAFPFRLRSLKGEGAVYFLPRANPGYYPWGAVLPQENLDHEFLLRPGQYLLELGTPGVVSLRLQAWETAPGNQEILVPLEMTESL	soluble
MVQESIISSFRGKLENDPSKSTSLATVETLLEVLDRSRATTVAEFQNELNQVVAALEKTDYSSTSIRSAADLFTRFTSLAPAALLDQEDFSQVLDLYRQRARSFIKNVRGSRAKISKCARLFFTHHMNILTHSYSKVVLETILDAHKSGYHLHVWVTESQPDASGKLVFEELKKNGVPTTLVLDSCVGYVMERIQAVLVGAEGVMETGGIINKIGTVNVCIIAKSRHVPVYVCAETIKFVREFPLNQADIPQEFKYRTSVIERNNLELEHPDVDYTAPEFLTLIITDVGAMKPEAVGEELIKMYI	not soluble
